# Measured values as given in the nanobody polyreactivity screen of Harvey et al. (2022).
# Assay: yeast display, Sf9 membrane polyspecificity reagent, FACS + sequencing; frameworks hold sequencing errors
# Outline: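 Genes from sorted yeast were amplified by colony PCR, read by MiSeq 2 × 250 sequencing and filtered on CDR length. These cells carried a synthetic nanobody library in Saccharomyces cerevisiae BJ5465 and were sorted by FACS into low and high (top ~1%) gates on anti-HA and streptavidin fluorescence. Polyreactivity is labelled according to the gate of origin.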
row,Sequence,polyreactivity (PSR sort gate)
1,QVQLVESGGGLVQAGGSLRLSCAASGLILYSYAMGWYRQAPGKERELVADISSGGITNYADSVKGRFTISRDNAKNTVYLQMNSLKPEDTAVYYCAADTRPVNYILYDYWGQGTQVTVSS,low polyreactivity
2,QVQLVESGGGLVQAGGSLRLSCAASGLILYSYTMGRYRHAPGKERELVAVISRSGTSTYYADSVKGRFTISRDNAKNTVYLQMNSLKREDTSFYFCAALSRSGPYAYEYWGQGTQVSVSS,high polyreactivity
3,QVQLVESGGGLVQAGGSLRLSCAASGLIQPYYTMGWYRQAPGKERELVAAIRRTTGSTFYADSVKGRFTISRDNAKNTVYLQMNSLKPEETAVYYCNVRRTPYSHWTGGGMDYWGQGTQVTVSS,high polyreactivity
4,QVQLVESGGGLVQAGGSLRLSCAASGLISLYYAMGWYRQAPGKERELVARITGSGGDTYYADSVKGRFTISRDNAKNTVYLQMNSLKPEDTAVSYCAAPALDWGQGTQVTVSS,low polyreactivity
5,QVQLVESGGGLVQAGGSLRLSCAASGLISRINAMGWYRQAPGKERELVAAISSGGSTNYADSVKGRFTISRDNAKNTVYLQMNSLKPEDTAVYYCAAGYIRKYSAFRYNYWGQGTQVTVSS,high polyreactivity
6,QVQLVESGGGLVQAGGSLRLSCAASGLISRRNAMGWYRQAPGKERELVAAISTGSSTNYADSVKGRFTLSRDNAKNTVYLQMNSLKPEDSAVYYCAATQYWWSTLGIRDDYWGQGTQVTVSS,low polyreactivity
7,QVQLVESGGGLVQAGGSLRLSCAASGLLFGRNVMGWYRQGPGKERELVAAISWSGGRTYYADSVKGRFTISRDNAKNTVYLQMNSLKPEDTAVYYCAADDGPGFDYWGQGTQVTESS,high polyreactivity
8,QVQLVESGGGLVQAGGSLRLSCAASGLNFKLYAMGWYRQAPGKEREFVATITGIGGSTYYADSVKGRFTISRDNAKNTVYLQMNSLKPEVTAVYYCAGDAWFLPYNYWGQGTQVTVSS,low polyreactivity
9,QVQLVESGGGLVQAGGSLRLSCAASGLNFSGYAMGWYRQAPGKESEMVAAINSGTSTTYADSVKARFTISRDNAKNTVYLQMNSMKPDDTAVYSCSATLEGGWWATYGSDYWGRGTQVTVSS,low polyreactivity
10,QVQLVESGGGLVQAGGSLRLSCAASGLNFSHYTMGWYRQAPGKERELVAAITSSGGSTYYADSVKGRFTISRDNGKNTVYLQMNSLKPVDTAVYYCNKALTSKDYPVRTVERDYWGQGTQVTVSS,low polyreactivity
11,QVQLVESGGGLVQAGGSLRLSCAASGLNFTYNAMGWSRQAPGKESELVAAITRSGGSTYYADSVKGRFTISRDNAKNTVYLQMNSLKPEDTAVYYCAKDDSAYSKYGYWGQGTQVTVSS,low polyreactivity
12,QVQLVESGGGLVQAGGSLRLSCAASGLNFYSNAMGWYRQAPGKERELVARISTGGSTYADSVKGRFTISRDNAKNTVYLQMNSLKPEDTAVYYCAKLPPRGIDDEYWGQGSQVTVSS,low polyreactivity
13,QVQLVESGGGLVQAGGSLRLSCAASGLNLAQYVMGWYRQAPGKERELVAAITWRGGGTYYADSVKGRFTISRDNAKYTVYLQMNSLKPEDTAVYYCNAVLYDGYVYNPGSTDDVDYWGQGTLVTVSS,high polyreactivity
14,QVQLVESGGGLVQAGGSLRLSCAASGLSCYPYAMGWYRQAPGKEMELVAAITSGDSTYYADSVKGRFTISRDNAKNTVYLQMNSLKPVDTAVYYCAKPDWVEVVTDFEYWGQGTQVTVSS,low polyreactivity
15,QVQLVESGGGLVQAGGSLRLSCAASGLSSLRMLWDGIDRRLGKKGSWLPLITSGGDSTNYADSVKGRFTISRDIAKNTVYLQMNSLKPEDTAVYYCAADLDYPYGYWGQGTQVTVSS,low polyreactivity
16,QVQLVESGGGLVQAGGSLRLSCAASGLTCGKYAMGWYRQAPGKERELVAAINSSGGSTYYADSVKGRFTISRDNAKNTVYLQMNSLKPEDTAVYYCAVAVYRLIYFEYNYWGQGTQVTVSS,low polyreactivity

row,Sequence,polyreactivity (PSR sort gate)
1,QVQLVESGGGLVQAGGSLRLSCAASGLTFAANAMGWYRQAPGKERELVAAITSSGGSTYYADSVKGRFTISRDNAKNTVYLQMNSLKPEDTAVYYCAARASRPRFGYWGQGTLVTVSS,high polyreactivity
2,QVQLVESGGGLVQAGGSLRLSCAASGLTFAFNVMGWYRQAPGKERELVAAISASGASTYYADSVKGRFTISRDTAKNTVYLQMNSLKPEDTAVYYCAALGYCFSYRYDYWGQGTQVTVSS,high polyreactivity
3,QVQLVESGGGLVQAGGSLRLSCAASGLTFAFYAMGWYRQAPGKEMELVARIRTSAITYYADSVKGSFTISRDNAKNTVYLQMNSLKPEDTAVYYCAAEEGRVFSGGYDYWGQGTQVTVSS,high polyreactivity
4,QVQLVESGGGLVQAGGSLRLSCAASGLTFAGNAMGWSRQAPGTERELVAAITWTGDRTYYADSVKGRFTISRDNAKNTVYLQMNCLKPEDTAVYYCAAQVRSLYSPGWYYYWGQGTQVTVSS,high polyreactivity
5,QVQLVESGGGLVQAGGSLRLSCAASGLTFAINTMGWYRPAPGTERELVAAITGSGGSTYYADSVKGRFTISRDNAKNTVYLQMNSLKPEDTAVYDCAAELLYVQGYAMDYWGQGTQVTVSS,low polyreactivity
6,QVQLVESGGGLVQAGGSLRLSCAASGLTFAKNAMGWYRQAPGKERELVAAITTGGSTYYADSVKGRFTISRDNAKNTVYLQMNSLKPEDTAVYYCAAQILVRHIPYYYWGQGTQVTVSS,high polyreactivity
7,QVQLVESGGGLVQAGGSLRLSCAASGLTFANYVMGWYRQAPGKERELVAAISGGGGSTHYADSVKGRFTISRDNAKNTVYLQMNSLKPEDTAVYYCNADKYSVYGEHPYDYWGQGTQVTVSS,low polyreactivity
8,QVQLVESGGGLVQAGGSLRLSCAASGLTFANYVMGWYRQAPGKEREMVAAISRSGGSTYYADSVKGRFTISRDNAKYTVYLQMNSLKPEDTAVYYCAAAAWDPKGSRYDYWGQGTQVTVSS,low polyreactivity
9,QVQLVESGGGLVQAGGSLRLSCAASGLTFAVYAMGVYRQAPGKEREVVAAINWSGGSTSYADSVKGRFTISRDNAKNTVYLQMNSLKPEDTAVYYCAAVPGSYSYWRVWYGYDYWGQGTQVTVSS,high polyreactivity
10,QVQLVESGGGLVQAGGSLRLSCAASGLTFAYYAMGWYRQAPGKERELVAAISWNGGRTYYADSVKGRFTISRDNAKNSVYLQMNSLKPEDSAVYYCAAQVTSSFYWGQGTQVTVSS,high polyreactivity
11,QVQLVESGGGLVQAGGSLRLSCAASGLTFAYYAMGWYRQAPGKERELVAAITSSGTSTYYADSVKGRFTISRDNAKNTVYLQMNSQKPEDTAVYYCNARVYGYRYTYRMDYWGQGTQVTVSS,high polyreactivity
12,QVQLVESGGGLVQAGGSLRLSCAASGLTFDGNTMGWYRQAPGKERELVAAISFDGGNTYADSVKGRFTISRDNAKNTVYLQMISLKPEDTAVYYDYWGQGNQVTVSS,low polyreactivity
13,QVQLVESGGGLVQAGGSLRLSCAASGLTFDKYTMGWYRQAPGKERELVARISTSGSRTYYADSVKGRFTISRDIAKNTVYLQMNSLKPEDTAVYYCNKDGWIRRRRGYDYWGQGTQVTVSS,high polyreactivity
14,QVQLVESGGGLVQAGGSLRLSCAASGLTFDVYTMGWYRQAPGKEREFVAGITSGGSTDYADSVKGRFTISRDNAKNTVYLQMNSLKPEDTAVYYCNKPFPYYPDGPNGYDYWGQGTQVTVSS,low polyreactivity
15,QVQLVESGGGLVQAGGSLRLSCAASGLTFDWYAMGWYRQAPGKERELVAAISWNGVSTDYADSVKGRFTISRDNAKYTVYLQMNRLKPEDTAVYYCAADPPWYLYVGFDYWGQGTQVNVSS,high polyreactivity
16,QVQLVESGGGLVQAGGSLRLSCAASGLTFDWYAMGWYRQAPGKERELVAAITSVGSTYYADSVKGRFTISRDNAKNTVYLQMNSLKPEDTAVYYCAVEGVMWSFWPYEYWGQGTQVTVSS,high polyreactivity
